In patent publication US20130216549A1:

Target: recombinant human IP-10 (Peprotech) (human) (UniProt P02778)
Assay: cell-based or functional assay

Chain of recombinant human IP-10 (Peprotech) (human) (P02778 22-98 limits assumed): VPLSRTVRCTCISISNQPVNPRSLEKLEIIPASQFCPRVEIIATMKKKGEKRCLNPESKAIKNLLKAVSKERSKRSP

B1: CC21R3P5_C5 (scFv format) (scFv, part only; not given: scFv linker, part only)
scFv, part: QVQLVQSGGGVVQPGRSLRLSCAASGFTFSTYGMHWVRQAPGKGLEWVAVISYDGGTKYYADSVKGRFTISRDNSMKTLYLQMNSLRTEDTAVYYCAKDLGDLPPGLDYWGRGTMVTVSSCHEMICALLYSYNTHESIZEDSYELTQPPSVSVALGQTATITCGGSSIESKSVHWYQEKPGQAPVLVIYKDSNRPSVIPERFSGSNSGNTATLTIGRAQAGDEADYYCQVWDSSTGVVFGGGTKLTVL
Calcium flux IC50 (nM); 10 nM hIP-10: 89 nM | Chemotaxis IC50 (nM); 1 nM hIP-10: 90 nM
